Measurements as given in article PMC4267639, “The Mtr4 ratchet helix and arch domain both function to promote RNA unwinding”.
Substitutions are numbered along the chain they refer to. Names may count otherwise.

T1: Mtr4 archless (Saccharomyces cerevisiae) (UniProt P47047)
T1 sequence: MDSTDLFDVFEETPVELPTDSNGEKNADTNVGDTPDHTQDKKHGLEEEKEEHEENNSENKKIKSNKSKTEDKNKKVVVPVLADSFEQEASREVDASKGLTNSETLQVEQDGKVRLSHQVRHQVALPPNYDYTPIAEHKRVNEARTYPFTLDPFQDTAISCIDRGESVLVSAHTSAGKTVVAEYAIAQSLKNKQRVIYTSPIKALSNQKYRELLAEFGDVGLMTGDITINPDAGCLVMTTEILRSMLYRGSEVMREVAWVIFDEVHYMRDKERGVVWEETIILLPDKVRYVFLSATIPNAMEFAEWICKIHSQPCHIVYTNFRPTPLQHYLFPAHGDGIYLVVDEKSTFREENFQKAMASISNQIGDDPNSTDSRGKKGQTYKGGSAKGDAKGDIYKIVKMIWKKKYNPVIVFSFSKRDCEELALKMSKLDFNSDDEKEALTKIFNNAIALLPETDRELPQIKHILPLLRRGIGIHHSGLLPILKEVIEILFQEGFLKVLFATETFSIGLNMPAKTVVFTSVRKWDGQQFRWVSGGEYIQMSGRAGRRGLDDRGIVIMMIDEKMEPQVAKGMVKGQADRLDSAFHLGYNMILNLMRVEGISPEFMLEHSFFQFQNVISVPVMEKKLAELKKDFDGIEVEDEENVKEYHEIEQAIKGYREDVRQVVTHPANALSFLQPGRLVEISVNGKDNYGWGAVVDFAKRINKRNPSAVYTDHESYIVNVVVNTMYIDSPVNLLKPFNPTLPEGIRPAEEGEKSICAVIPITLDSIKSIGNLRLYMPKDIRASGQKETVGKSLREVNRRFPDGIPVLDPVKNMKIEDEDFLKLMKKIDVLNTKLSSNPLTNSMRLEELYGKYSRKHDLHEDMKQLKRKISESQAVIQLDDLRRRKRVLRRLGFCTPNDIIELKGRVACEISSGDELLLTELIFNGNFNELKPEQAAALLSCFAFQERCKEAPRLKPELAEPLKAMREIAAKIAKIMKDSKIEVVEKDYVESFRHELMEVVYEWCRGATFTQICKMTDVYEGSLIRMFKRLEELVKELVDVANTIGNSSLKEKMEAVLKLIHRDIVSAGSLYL

T2: Mtr4 E1033A-archless E1033A (Saccharomyces cerevisiae) (UniProt P47047)
T2 sequence: T1 sequence with E1033A

T3: Mtr4 R1030A-archless R1030A (Saccharomyces cerevisiae) (UniProt P47047)
T3 sequence: T1 sequence with R1030A

T4: Mtr4 WT (Saccharomyces cerevisiae, UniProt P47047)
T4 sequence: T1 sequence

T5: Mtr4 R1030A (Saccharomyces cerevisiae, UniProt P47047 1-1073, R1030A)
T5 sequence: T1 sequence with R1030A

T6: Mtr4 E1033A (Saccharomyces cerevisiae, UniProt P47047 1-1073, E1033A)
T6 sequence: T1 sequence with E1033A

B1: poly(A) substrate R22A/R16, fluorescein (dsRNA)
RNA 1: GCGUCUUUACGGUGCUUAAAAA
RNA 2: AGCACCGUAAAGACGC

Columns and labels:
[1] = target: T1, Mtr4 archless (Saccharomyces cerevisiae); assay: fluorescence anisotropy; details: FA: 40 mM MOPS pH 6.5, 100 mM NaCl, 0.5 mM MgCl2, 5% glycerol, 0.01% NP-40 substitute, 2 mM DTT, 60 nM RNA, 30 C; EMSA conditions not in material
[2] = target: T2, Mtr4 E1033A-archless E1033A (Saccharomyces cerevisiae); assay: fluorescence anisotropy; details: FA: 40 mM MOPS pH 6.5, 100 mM NaCl, 0.5 mM MgCl2, 5% glycerol, 0.01% NP-40 substitute, 2 mM DTT, 60 nM RNA, 30 C; EMSA conditions not in material
[3] = target: T3, Mtr4 R1030A-archless R1030A (Saccharomyces cerevisiae); assay: fluorescence anisotropy; details: FA: 40 mM MOPS pH 6.5, 100 mM NaCl, 0.5 mM MgCl2, 5% glycerol, 0.01% NP-40 substitute, 2 mM DTT, 60 nM RNA, 30 C; EMSA conditions not in material
Mtr4 WT = target: T4, Mtr4 WT; assay: fluorescence anisotropy; 0.5 mM MgCl2; FA: 40 mM MOPS pH 6.5, 100 mM NaCl, 0.5 mM MgCl2, 5% glycerol, 0.01% NP-40 substitute, 2 mM DTT, 60 nM RNA, 30 C; EMSA conditions not in material; details: protein: recombinant; tags: vector pET151/D-TOPO; label: 3' fluorescein on R16; 3' overhang 6 nt (UAAAAA) on R22A, other end blunt; 16 bp
Mtr4 R1030A = target: T5, Mtr4 R1030A; assay: as above; details: protein: recombinant; tags: vector pET151/D-TOPO; label: 3' fluorescein on R16; 3' overhang 6 nt (UAAAAA) on R22A, other end blunt; 16 bp
Mtr4 E1033A = target: T6, Mtr4 E1033A; assay: as above; details: protein: recombinant; tags: vector pET151/D-TOPO; label: 3' fluorescein on R16; 3' overhang 6 nt (UAAAAA) on R22A, other end blunt; 16 bp

| Molecule | Kd [1] | Kd [2] | Kd [3] | Kd (Mtr4 WT) | Kd (Mtr4 R1030A) | Kd (Mtr4 E1033A) |
| --- | --- | --- | --- | --- | --- | --- |
| GCGUCUUUACGGUGCUUAAAAA / AGCACCGUAAAGACGC [poly(A) substrate R22A/R16, fluorescein] | 4500 nM | 4800 nM | > 10000 nM | – | – | – |
| B1 | – | – | – | 2800 ± 900 nM | 2600 ± 1000 nM | 2000 ± 600 nM |
